Target: T1, GST-tagged 14-3-3γ (UniProt P61981 1-247)
T1 construct: 14-3-3γ, in the bacterial expression vector pGEX-4T3; Held on glutathione sepharose 4B as bait; also called GST-14-3-3γ; GST-14-3-3
T1 sequence (looked up): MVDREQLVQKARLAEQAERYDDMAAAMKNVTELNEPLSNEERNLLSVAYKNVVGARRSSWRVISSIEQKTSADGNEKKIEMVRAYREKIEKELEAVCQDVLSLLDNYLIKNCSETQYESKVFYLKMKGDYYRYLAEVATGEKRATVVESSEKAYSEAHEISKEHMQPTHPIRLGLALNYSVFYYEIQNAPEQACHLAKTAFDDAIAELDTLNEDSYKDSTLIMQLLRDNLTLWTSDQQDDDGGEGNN
Assay: pull-down; glutathione sepharose 4B saturated with purified GST-14-3-3γ, incubated with lysates of transfected HEK293T cells; cells without or with 10 µM forskolin (time course or 15 min), RGS18 alone or co-expressed with myc-spinophilin and/or VSV-PP1 catalytic subunit; precipitates blotted with anti-RGS18 or anti-FLAG
Conditions: one partner purified

fold reduction of binding by forskolin against non-treated cells (cells expressing RGS18, spinophilin and PP1): 21 fold | fold reduction of binding by forskolin against non-treated cells (cells expressing RGS18 alone): 2.6 fold | fold reduction of binding by forskolin against non-treated cells (cells expressing RGS18 and PP1): 25 fold | fold reduction of binding by forskolin against non-treated cells (cells expressing RGS18 and spinophilin): 3.7 fold
B1: FLAG-tagged RGS18 (wild type) (natural protein, human, UniProt Q9NS28 1-235, looked up)
chain: METTLLFFSQINMCESKEKTFFKLIHGSGKEETSKEAKIRAKEKRNRLSLLVQKPEFHEDTRSSRSGHLAKETRVSPEEAVKWGESFDKLLSHRDGLEAFTRFLKTEFSEENIEFWIACEDFKKSKGPQQIHLKAKAIYEKFIQTDAPKEVNLDFHTKEVITNSITQPTLHSFDAAQSRVYQLMEQDSYTRFLKSDIYLDLMEGRPQRPTNLRRRSRSFTCNEFQDVQSDVAIWL
modifications: phosphoserine at S218 present in the basal state; phosphoserine at S49 (s3 band); phosphoserine at S216 after forskolin
notes: Regulator of G-protein signaling 18 (RGS18), 235 amino acids, in pcDNA4/TO; also called wt RGS18; wt-RGS18; source: HEK293T, transfected, in lysate

Source: article PMC3820651, “Cyclic Nucleotide Dependent Dephosphorylation of Regulator of G-Protein Signaling 18 in Human Platelets” (PLoS ONE, 2013)
